# Laboratory results: patent publication US11123408B2, “Compositions and methods for treating nonsteroidal anti-inflammatory drug (NSAID) associated coagulopathy, thrombocytopenia, glanzmann's thrombasthenia, and/or thrombosis” (YALE UNIVERSITY, priority 2011, dated 2021)
# Entries after “also recorded” stand apart in the source; their conditions may differ.
# B1: NPP4: soluble recombinant extracellular domain of human NPP4 (NCBI AAH18054.1, residues 1-407 of SEQ ID NO:1), expressed in insect cells (protein, listed as Homo sapiens)
# chain: MKLLVILLFSGLITGFRSDSSSSLPPKLLLVSFDGFRADYLKNYEFPHLQNFIKEGVLVEHVKNVFITKTFPNHYSIVTGLYEESHGIVANSMYDAVTKKHFSDSNDKDPFWWNEAVPIWVTNQLQENRSSAAAMWPGTDVPIHDTISSYFMNYNSSVSFEERLNNITMWLNNSNPPVTFATLYWEEPDASGHKYGPEDKENMSRVLKKIDDLIGDLVQRLKMLGLWENLNVIITSDHGMTQCSQDRLINLDSCIDHSYYTLIDLSPVAAILPKINRTEVYNKLKNCSPHMNVYLKEDIPNRFYYQHNDRIQPIILVADEGWTIVLNESSQKLGDHGYDNSLPSMHPFLAAHGPAFHKGYKHSTINIVDIYPMMCHILGLKPHPNNGTFGHTKCLLVDQWCINLPEA
# How the values were obtained:
# Assay type in all cases: cell-based, human
# [1] = test system: platelets of a patient donor with a mild platelet storage pool disorder; experiment: LTA in platelet rich plasma of a patient donor with a mild platelet storage pool disorder; settings: 50 nM NPP4; 2.5 μM ADP; without NPP4 approximately 40%
# Procedure: (§1) Platelet aggregation was determined by measuring the change in light transmittance of stirred PRP over time after addition of various agonists. Prior to each experiment the aggregometer was standardized to reflect 100% and 0% light transmittance with PPP and PRP, respectively, from the donor whose platelets were used in each specific experiment. 500 μL PRP was added to cuvettes containing a magnetic stir bar and allowed to pre-warm to 37° C. in the aggregometer wells for 3 minutes prior to initiating aggregation reactions which were then conducted at 37° C. Aggregation reactions were initiated by direct addition of agonists and/or enzymes to warmed, stirred PRP, and were monitored for an increase in light transmittance for 10 minutes. The increase in light transmittance is directly proportional to the amount of aggregation and is amplified and digitized into a computer (HP Compaq, Hewlett-Packard, Palo Alto, Calif.) with the AGGRO/LINK8 for Windows software (Chrono-Log Corporation, Havertown, Pa.) to generate aggregation curves. […] The platelet aggregometry experiments for all concentrations of MRS 2395 (including the 0 μM point) were conducted with the plasma adjusted to a final concentration of 10% DMSO to solubilize the inhibitor.
# (§2) NPP4 rescues platelets exposed to NSAIDs. […]
# [2] = test system: platelets in platelet rich plasma; experiment: Lumi aggregometry (extracellular ATP, dense granule release) simultaneously with LTA
# Procedure: Whole blood from healthy voluntary donors was collected in accordance with an IRB-approved protocol into blue top vacutainer tubes containing 3.2% sodium citrate. Blood was centrifuged at 1000 RPM for 10 minutes at room temperature to collect platelet rich plasma (PRP). PRP in the supernatant was then transferred to fresh tubes, and the remainder of the specimen was centrifuged at 4000 RPM for 10 minutes to obtain platelet poor plasma (PPP). PRP was adjusted to a final platelet count of 250×10^6 platelets/mL with autologous PPP for use in aggregation studies. Potential donors were excluded if there was a history of a bleeding disorder or current anticoagulant use and donors were instructed to avoid NSAIDs for at least 7 days prior to donation. Approval for the human subjects involved in this research was sought and granted by the Committee for the Protection of Human Subjects, Dartmouth-Hitchcock Medical Center, where these studies were conducted in accordance with the Declaration of Helsinki.
# Light transmission (i.e., optical) and lumi aggregometry were performed on up to four samples from the same individual simultaneously with a Chrono-Log Model 700 Whole Blood/Optical Lumi Aggregometer (Chrono-Log Corporation, Havertown, Pa.) using procedures provided by the manufacturer that are briefly summarized here.
# as §1
# In a subgroup of experiments, lumi aggregometry was used to assay the levels of extracellular ATP simultaneously with LTA. Lumi aggregometry measures ATP in the extracellular space over time using a sensitive luminescent assay employing firefly luciferin-luciferase (CHRONO-LUME™ reagent, Chrono-Log Corporation, Havertown, Pa.). ATP binds to luciferin-luciferase and generates light that is then amplified by a high-gain photomultiplier tube in the lumi aggregometer and is measured simultaneously with the optical change in light transmittance caused by platelet aggregation. In experiments in which lumi aggregometry was performed, 450 μL of PRP was transferred to cuvettes containing magnetic stir bars and allowed to pre-warm to 37° C. in the aggregometer wells for 3 minutes. […] Reactions were initiated by the addition of agonists and/or enzymes to warmed PRP and CHRONOLUME′ reagent and were monitored for light generation. […]
# [3] = test system: platelets exposed to NSAIDs; experiment: LTA in platelet-rich plasma from an individual who had consumed ibuprofen; settings: 20 nM NPP4; 3 μM ADP; donor took 800 mg ibuprofen 12 hours before
# Procedure: as §1, §2
molecule,measurement,setting,value
B1,maximum amplitude of aggregation,[1],approximately 65%
same,time to granule release,[2]; 100 nM NPP4 with 40 μM Ap3A,~1.5 min
same,"platelet aggregation and dense granule (ATP) release, enzyme with Ap3A (qualitative)",[2]; 100 nM enzyme with 40 μM Ap3A,ATP release and platelet aggregation were simultaneously seen; also recorded: strong platelet aggregation and dense granule release
same,effect on ADP-induced aggregation of NSAID-exposed platelets,[3],normalization of ADP-induced aggregation
